In article PMC9149119:
Like-named read-outs stand apart in the source and are kept apart here.

Assays:
[1] = molecular target: T1, MsCAPP PP domain (MsPP111-328) (Marinitoga sp. 1137, UniProt PDB:7QAZ_1 1-219); test: X-ray crystallography
T1 sequence: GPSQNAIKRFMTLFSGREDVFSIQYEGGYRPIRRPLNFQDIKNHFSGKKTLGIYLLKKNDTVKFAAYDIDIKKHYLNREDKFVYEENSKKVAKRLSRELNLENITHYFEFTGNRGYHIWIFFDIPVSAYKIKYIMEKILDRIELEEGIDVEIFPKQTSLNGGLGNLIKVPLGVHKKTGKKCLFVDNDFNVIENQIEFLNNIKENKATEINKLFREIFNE

[2] = molecular target: T1, MsCAPP PP domain (MsPP111-328); test: X-ray crystallography; remark: listed apart in the source

B1: dsDNA 6-mer (dsDNA)
DNA 1: CGTGCG
DNA 2: CGTGCG
- binding result [1]: binds

Binder: AAAAATCAA (ssDNA) [primer initiation template 9-mer]
- binding result [2]: binds
